Test results reported in publication PMC10715029, “Interaction and assembly of the DNA replication core proteins of Kaposi’s sarcoma-associated herpesvirus” (Microbiology Spectrum, 2023).

Experiments:
Conditions in all cases: partners not purified
[1] = target: T1, GAL4-ORF40/41 (Kaposi's sarcoma-associated herpesvirus …, UniProt Q2HR92 1-669); assay: two-hybrid; mammalian two-hybrid (GAL4/VP16) in 293T cells, pGal4(5×)-Luc reporter, only the GAL4 and the VP16 fusion coexpressed, luciferase at 24 h, fold activation over empty vector; radicicol (0.25-1 µM) inhibited the activation by GAL4-ORF59 and VP16-ORF9 dose-dependently
T1 construct: KSHV ORF40/41, primase-associated factor (PAF); source: 293T, transfected, mammalian two-hybrid fusion
T1 sequence: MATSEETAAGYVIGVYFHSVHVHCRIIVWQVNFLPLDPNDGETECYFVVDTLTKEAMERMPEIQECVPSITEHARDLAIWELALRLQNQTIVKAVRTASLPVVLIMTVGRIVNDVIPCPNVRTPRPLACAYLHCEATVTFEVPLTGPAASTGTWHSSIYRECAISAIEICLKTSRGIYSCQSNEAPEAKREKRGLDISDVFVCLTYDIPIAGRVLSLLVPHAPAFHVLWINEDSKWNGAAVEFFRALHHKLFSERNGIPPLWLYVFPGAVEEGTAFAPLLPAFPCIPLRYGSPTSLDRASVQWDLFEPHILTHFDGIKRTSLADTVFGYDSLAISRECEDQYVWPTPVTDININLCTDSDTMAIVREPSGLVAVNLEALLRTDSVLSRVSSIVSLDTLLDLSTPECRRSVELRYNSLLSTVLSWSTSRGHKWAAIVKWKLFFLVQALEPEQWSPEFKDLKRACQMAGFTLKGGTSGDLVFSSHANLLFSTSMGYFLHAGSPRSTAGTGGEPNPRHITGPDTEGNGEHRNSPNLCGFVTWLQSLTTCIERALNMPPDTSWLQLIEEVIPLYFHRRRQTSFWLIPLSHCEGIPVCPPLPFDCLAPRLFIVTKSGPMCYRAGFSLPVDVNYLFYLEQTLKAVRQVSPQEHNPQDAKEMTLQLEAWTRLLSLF

[2] = target: T2, GAL4-ORF56 (Kaposi's sarcoma-associated herpesvirus …, UniProt Q76RG1 1-843); assay: two-hybrid; mammalian two-hybrid (GAL4/VP16) in 293T cells, pGal4(5×)-Luc reporter, GAL4 and VP16 fusions coexpressed with further FLAG-tagged core replication proteins, luciferase at 24 h, fold activation over empty vector; radicicol (0.25-1 µM) inhibited the activation by GAL4-ORF56, VP16-ORF44 and F-ORF40/41 dose-dependently
T2 construct: KSHV ORF56, primase (PRI); also called GALF4-ORF56; source: 293T, transfected, mammalian two-hybrid fusion
T2 sequence: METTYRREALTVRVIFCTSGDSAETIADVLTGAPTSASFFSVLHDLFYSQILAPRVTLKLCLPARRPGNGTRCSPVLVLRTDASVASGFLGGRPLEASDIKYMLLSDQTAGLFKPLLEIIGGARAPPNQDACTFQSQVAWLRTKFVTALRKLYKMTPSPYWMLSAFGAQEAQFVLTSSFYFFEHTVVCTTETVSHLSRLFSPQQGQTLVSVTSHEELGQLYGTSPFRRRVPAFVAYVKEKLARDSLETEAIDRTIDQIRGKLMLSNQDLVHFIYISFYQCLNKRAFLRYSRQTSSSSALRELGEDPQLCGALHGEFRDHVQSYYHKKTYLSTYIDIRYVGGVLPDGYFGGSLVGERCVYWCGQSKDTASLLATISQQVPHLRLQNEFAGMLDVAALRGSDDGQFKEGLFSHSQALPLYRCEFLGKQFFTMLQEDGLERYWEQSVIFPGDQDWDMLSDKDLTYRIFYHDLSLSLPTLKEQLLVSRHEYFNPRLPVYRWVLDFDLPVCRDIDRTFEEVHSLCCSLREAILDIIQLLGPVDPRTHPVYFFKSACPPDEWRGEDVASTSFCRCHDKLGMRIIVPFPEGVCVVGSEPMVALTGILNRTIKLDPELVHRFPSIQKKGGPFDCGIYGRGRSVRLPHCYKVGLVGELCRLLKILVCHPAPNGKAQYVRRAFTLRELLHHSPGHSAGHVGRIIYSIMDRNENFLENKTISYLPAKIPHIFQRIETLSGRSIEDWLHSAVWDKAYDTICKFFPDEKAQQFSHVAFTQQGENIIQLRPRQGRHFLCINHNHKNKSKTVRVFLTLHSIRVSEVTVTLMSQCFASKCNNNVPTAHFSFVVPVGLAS

[3] = target: T1, GAL4-ORF40/41; assay: as above

B1: VP16-ORF6 (natural protein)
chain: MALKGPQTLEENIGSAAPTGPCGYLYAYVTHNFPIGEASLLGNGYPEAKVFSLPLLHGLTVESDFPLNVKAVHKKIDATTASVKLTSYHREAIVFHNTHLFQPIFQGKGLEKLCRESRELFGFSTFVEQQHKGTLWSPEACPQLPCANEIFMAVIVTEGFKERLYGGKLVPVPSQTTPVHIGEHQAFKIPLYDEDLFGPSRAQELCRFYNPDISRYLHDSIFTGIAQALRVKDVSTVIQASERQFVHDQYKIPKLVQAKDFPQCASRGTDGSTLMVIDSLVAELGMSYGLSFIEGPQDSCEVLNYDTWPIFENCETPDARLRALEVWHAEQALHIGAQLFAANSVLYLTRVAKLPQKNQRGDANMYNSFYLQHGLGYLSEATVKENGASAFKGVPVSALDGSSYTLQHLAYASSFSPHLLARMCYYLQFLPHHKNTNSQSYNVVDYVGTAAPSQMCDLCQGQCPAVCINTLFYRMKDRFPPVLSNVKRDPYVITGTAGTYNDLEILGNFATFREREEEGNPVEDAPKYTYWQLCQNITEKLASMGISEGGDALRTLIVDIPSFVKVFKGIDSTVEAELLKFINCMIKNNYNFRENIKSVHHILQFACNVYWQAPCPVFLTLYYKSLLTVIQDICLTSCMMYEQDNPAVGIVPSEWLKMHFQTMWTNFKGACFDKGAITGGELKIVHQSMFCDLFDTDAAIGGMFAPARMQVRIARAMLMVPKTIKIKNRIIFSNSTGAESIQAGFMKPASQRDSYIVGGPYMKFLNALHKTLFPSTKTSALYLWHKIGQTTKNPILPGVSGEHLTELCNYVKASSQAFEEINVLDLVPDTLTSYAKIKLNSSILRACGQTQFYATTLSCLSPVTQLVPAEEYPHVLGPVGLSSPDEYRVKVAGRSVTIVQSTLKQAVSTNGRLRPIITVPLVVNKYTGSNGNTNVFHCANLGYFSGRGVDRNLRPESVPFKKNNVSSMLRKRHVIMTPLVDRLVKRIVGINSGEFEAEAVKRSVQNVLEDRDNPNLPKTVVLELVKHLGSSCASLTEEDVIYYLGPYAVLGDEVLSLLSTVGQAGVPWTAEGVASVIQDIIDDCELQFVGPEEPCLIQGQSVVEELFPSPGVPSLTVGKKRKIASLLSDLDL
notes: source: 293T, transfected, mammalian two-hybrid fusion
fold reporter activation [1]: 56 fold

B2: VP16-ORF44 (natural protein)
chain: MDSSEGCTDMDEPSPGFILNMTSDAKVRSVVEQIDRLSNITTSPPEMGWYDLEFDPLEDEGPFLPFSAYVITGTAGAGKSTSVSALHQNLNCLITGATVVAAQNLSRALKSYCPTIYHAFGFKSRHINICQRKVPKVTQSSIEQLQRYELARYWPTVTDIIREFMRKKQKGQYSSLSQSAFRLLCRMGGANLWTSNIIVIDEAGTLSSHILTAVVFFYWFYNSWLDTPLYRNGAVPCIVCVGSPTQTDAFQSVFNHTQQRNEISACDNVLTFLLGKREVADYIRLDENWALFINNKRCTDPQFGHLLKTLEYNLDISPELMDYIDRFVVPKSKILDPLEYAGWTRLFISHQEVKSFLATLHTCLSSNKDAVSTKLFTCPVVCEVFTEPFEEYKRAVGLTHMTPIEWVTKNLFRLSNYSQFADQDMAVVGTYITDASTQITFATKFVKNSYATLTGKTKKCICGFHGSYQRFKSILDGELFIESHSHDNPAYVYSFLSTLLYNAMYSFYAHGVKQGHEEFLRDLRELPVSQELISEMSSEDVLGQEGDTDAFYLTASLPPSPTHAALPTLVAYYSGAKELFCNRLALARRHFGDEFLHSDFSTFTVNIVVRDGVDFVSTSPGLHGLVAYASTIDTYIIQGYTFLPVRFGRPGGQRLSEDLRRKMPSIVVQDSSGFIACLENNVTKMTETLEGGDVFNICCAGDYGISSNLAMTIVKAQGVSLSRVAISFGNHRNIRASLVYVGVSRAIDARYLVMDSNPLKLMDRGDAQSPSSKYIIKALCNPKTTLIY
notes: KSHV ORF44, helicase (HEL); source: 293T, transfected, mammalian two-hybrid fusion
fold reporter activation (F-ORF40/41 coexpressed) [2]: ≤ 55 fold
fold reporter activation (F-ORF56 coexpressed) [3]: ≤ 60 fold

B3: VP16-ORF40/41 (natural protein)
chain: T1 sequence
notes: KSHV ORF40/41, primase-associated factor (PAF); source: 293T, transfected, mammalian two-hybrid fusion
fold reporter activation (F-ORF44 coexpressed) [2]: ≤ 280 fold
